Experiment [1] addresses T1, PSMA (Prostate-Specific Membrane Antigen), glutamate carboxypeptidase 2 (UniProt Q04609 1-750). Put plainly: FACS.
For experiment [2], the target named is T1, PSMA (Prostate-Specific Membrane …). Kind of experiment: FACS; C4-2 XCL cells.
The target in experiment [3] is CD8 (cell surface CD8 on HPB-ALL cells) (UniProt P01732 22-235; A6NJW9 19-210). Put plainly: FACS. A general note: In flow cytometry, cells or beads pass a laser one at a time.
The target in experiment [4] is T1, PSMA (Prostate-Specific Membrane …). Kind of experiment: FACS; LNCaP-AR cells.
For experiment [5] the target is unchanged. Kind of experiment: FACS; table prints γ2 EH2, curve legend prints γ1 EH1.

Residue numbers refer to the chain shown, from its start.

CD8 (cell surface CD8 on HPB-ALL cells), sequence (P01732 22-235, chain 1 of 2): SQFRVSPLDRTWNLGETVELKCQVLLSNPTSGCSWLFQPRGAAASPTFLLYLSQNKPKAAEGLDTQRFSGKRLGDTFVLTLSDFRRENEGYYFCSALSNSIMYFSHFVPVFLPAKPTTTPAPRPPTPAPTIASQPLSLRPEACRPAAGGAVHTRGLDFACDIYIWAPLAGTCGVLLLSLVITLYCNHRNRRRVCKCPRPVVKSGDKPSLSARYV
CD8 (cell surface CD8 on HPB-ALL cells), sequence (A6NJW9 19-210 C51R/T71A, chain 2 of 2): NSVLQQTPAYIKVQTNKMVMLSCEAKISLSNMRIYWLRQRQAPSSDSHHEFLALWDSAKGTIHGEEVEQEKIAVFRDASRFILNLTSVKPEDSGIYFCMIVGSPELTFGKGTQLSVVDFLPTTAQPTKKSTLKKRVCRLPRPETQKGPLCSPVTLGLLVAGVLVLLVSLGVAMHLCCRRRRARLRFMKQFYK

B1: IAB2M γ1 EH3 (other)
chain: DIVMTQSPSSLSASVGDRVTITCKASQDVGTAVDWYQQKPGKAPKLLIYWASTRHTGVPDRFTGSGSGTDFTLTISSLQPEDFADYFCQQYNSYPLTFGGGTKLEIKGSTSGGGSGGGSGGGGSSEVQLVQSGAEVKKPGASVKISCKTSGYTFTEYTIHWVKQASGKGLEWIGNINPNNGGTTYNQKFEDRATLTVDKSTSTAYMELSSLRSEDTAVYYCAAGWNFDYWGQGTTVTVSSEPKSSDKTHTCPPCPPCGGGSSGGGSGGQPREPQVYTLPPSRDELTKNQVSLTCLVKGFYPSDIAVEWESNGQPENNYKTTPPVLDSDGSFFLYSKLTVDKSRWQQGNVFSCSVMHEALHNHYTQKSLSLSPGK
For the molecule B1, the EC50 (in general, the concentration giving half of the maximal effect) is 0.162 nM in experiment [1] and 0.38 nM in experiment [2].

B2: IAB22M γ3/γ1 EH7 (other)
chain: DVQITQSPSSLSASVGDRVTITCRTSRSISQYLAWYQQKPGKVPKLLIYSGSTLQSGVPSRFSGSGSGTDFTLTISSLQPEDVATYYCQQHNENPLTFGGGTKVEIKGSTSGGGSGGGSGGGGSSEVQLVESGGGLVQPGGSLRLSCAASGFNIKDTYIHFVRQAPGKGLEWIGRIDPANDNTLYASKFQGKATISADTSKNTAYLQMNSLRAEDTAVYYCGRGYGYYVFDHWGQGTLVTVSSELKTPLGDTTHTCPPCPPCGGGSSGGGSGGQPREPQVYTLPPSRDELTKNQVSLTCLVKGFYPSDIAVEWESNGQPENNYKTTPPVLDSDGSFFLYSKLTVDKSRWQQGNVFSCSVMHEALHNHYTQKSLSLSPGK
B2: the EC50 in experiment [3] is 0.17 nM.

B3: IAB22M γ3/γ1 EH6 (other)
chain: B2 chain with P257V, P258E
As to B3, in experiment [3], the EC50 amounted to 0.188 nM.

B4: IAB22M γ1 EH3 (other)
chain: DVQITQSPSSLSASVGDRVTITCRTSRSISQYLAWYQQKPGKVPKLLIYSGSTLQSGVPSRFSGSGSGTDFTLTISSLQPEDVATYYCQQHNENPLTFGGGTKVEIKGSTSGGGSGGGSGGGGSSEVQLVESGGGLVQPGGSLRLSCAASGFNIKDTYIHFVRQAPGKGLEWIGRIDPANDNTLYASKFQGKATISADTSKNTAYLQMNSLRAEDTAVYYCGRGYGYYVFDHWGQGTLVTVSSEPKSSDKTHTCPPCPPCGGGSSGGGSGGQPREPQVYTLPPSRDELTKNQVSLTCLVKGFYPSDIAVEWESNGQPENNYKTTPPVLDSDGSFFLYSKLTVDKSRWQQGNVFSCSVMHEALHNHYTQKSLSLSPGK
In turn, B4 had an EC50 in experiment [3] of 0.37 nM.

B5: IAB22M γ3/γ1 EH8 (other)
chain: DVQITQSPSSLSASVGDRVTITCRTSRSISQYLAWYQQKPGKVPKLLIYSGSTLQSGVPSRFSGSGSGTDFTLTISSLQPEDVATYYCQQHNENPLTFGGGTKVEIKGSTSGGGSGGGSGGGGSSEVQLVESGGGLVQPGGSLRLSCAASGFNIKDTYIHFVRQAPGKGLEWIGRIDPANDNTLYASKFQGKATISADTSKNTAYLQMNSLRAEDTAVYYCGRGYGYYVFDHWGQGTLVTVSSELKTPLGDTTHTCPPCPPCPPCGGGSSGGGSGGQPREPQVYTLPPSRDELTKNQVSLTCLVKGFYPSDIAVEWESNGQPENNYKTTPPVLDSDGSFFLYSKLTVDKSRWQQGNVFSCSVMHEALHNHYTQKSLSLSPGK
The molecule B5 returned an EC50 in experiment [3] of 0.163 nM.

B6: IAB2M γ1 EH5 (other)
chain: DIVMTQSPSSLSASVGDRVTITCKASQDVGTAVDWYQQKPGKAPKLLIYWASTRHTGVPDRFTGSGSGTDFTLTISSLQPEDFADYFCQQYNSYPLTFGGGTKLEIKGSTSGGGSGGGSGGGGSSEVQLVQSGAEVKKPGASVKISCKTSGYTFTEYTIHWVKQASGKGLEWIGNINPNNGGTTYNQKFEDRATLTVDKSTSTAYMELSSLRSEDTAVYYCAAGWNFDYWGQGTTVTVSSEPKSSDKTHTCPPCPPCPPCGGGSSGGGSGGQPREPQVYTLPPSRDELTKNQVSLTCLVKGFYPSDIAVEWESNGQPENNYKTTPPVLDSDGSFFLYSKLTVDKSRWQQGNVFSCSVMHEALHNHYTQKSLSLSPGK
The molecule B6 gave an EC50 in experiment [1] of 0.183 nM.

B7: IAB2M γ1 EH2 (other)
chain: DIVMTQSPSSLSASVGDRVTITCKASQDVGTAVDWYQQKPGKAPKLLIYWASTRHTGVPDRFTGSGSGTDFTLTISSLQPEDFADYFCQQYNSYPLTFGGGTKLEIKGSTSGGGSGGGSGGGGSSEVQLVQSGAEVKKPGASVKISCKTSGYTFTEYTIHWVKQASGKGLEWIGNINPNNGGTTYNQKFEDRATLTVDKSTSTAYMELSSLRSEDTAVYYCAAGWNFDYWGQGTTVTVSSEPKSSDKTHTCPPCGGGSSGGGSGGQPREPQVYTLPPSRDELTKNQVSLTCLVKGFYPSDIAVEWESNGQPENNYKTTPPVLDSDGSFFLYSKLTVDKSRWQQGNVFSCSVMHEALHNHYTQKSLSLSPGK
Consider B7, for which the figures for the EC50 in experiment [4] and in experiment [2] were 0.06 nM and 0.26 nM, respectively.

B8: IAB2M γ1 EH1 (other)
chain: B7 chain with S245C
Regarding B8, the figures for the EC50 in experiment [4] and in experiment [2] were 0.05 nM and 0.4 nM, respectively.

B9: IAB2M γ3/γ1 EH8 (other)
chain: DIVMTQSPSSLSASVGDRVTITCKASQDVGTAVDWYQQKPGKAPKLLIYWASTRHTGVPDRFTGSGSGTDFTLTISSLQPEDFADYFCQQYNSYPLTFGGGTKLEIKGSTSGGGSGGGSGGGGSSEVQLVQSGAEVKKPGASVKISCKTSGYTFTEYTIHWVKQASGKGLEWIGNINPNNGGTTYNQKFEDRATLTVDKSTSTAYMELSSLRSEDTAVYYCAAGWNFDYWGQGTTVTVSSELKTPLGDTTHTCPPCPPCPPCGGGSSGGGSGGQPREPQVYTLPPSRDELTKNQVSLTCLVKGFYPSDIAVEWESNGQPENNYKTTPPVLDSDGSFFLYSKLTVDKSRWQQGNVFSCSVMHEALHNHYTQKSLSLSPGK
B9 came in with an EC50 in experiment [1] of 0.227 nM.

B10: IAB2M γ3/γ1 EH7 (other)
chain: DIVMTQSPSSLSASVGDRVTITCKASQDVGTAVDWYQQKPGKAPKLLIYWASTRHTGVPDRFTGSGSGTDFTLTISSLQPEDFADYFCQQYNSYPLTFGGGTKLEIKGSTSGGGSGGGSGGGGSSEVQLVQSGAEVKKPGASVKISCKTSGYTFTEYTIHWVKQASGKGLEWIGNINPNNGGTTYNQKFEDRATLTVDKSTSTAYMELSSLRSEDTAVYYCAAGWNFDYWGQGTTVTVSSELKTPLGDTTHTCPPCPPCGGGSSGGGSGGQPREPQVYTLPPSRDELTKNQVSLTCLVKGFYPSDIAVEWESNGQPENNYKTTPPVLDSDGSFFLYSKLTVDKSRWQQGNVFSCSVMHEALHNHYTQKSLSLSPGK
In experiment [1], B10 registered an EC50 of 0.186 nM.

B11: IAB2M γ3/γ1 EH6 (other)
chain: B10 chain with P254V, P255E
With B11, the EC50 in experiment [1] was 0.188 nM.

B12: IAB22M γ1 EH5 (other)
chain: DVQITQSPSSLSASVGDRVTITCRTSRSISQYLAWYQQKPGKVPKLLIYSGSTLQSGVPSRFSGSGSGTDFTLTISSLQPEDVATYYCQQHNENPLTFGGGTKVEIKGSTSGGGSGGGSGGGGSSEVQLVESGGGLVQPGGSLRLSCAASGFNIKDTYIHFVRQAPGKGLEWIGRIDPANDNTLYASKFQGKATISADTSKNTAYLQMNSLRAEDTAVYYCGRGYGYYVFDHWGQGTLVTVSSEPKSSDKTHTCPPCPPCPPCGGGSSGGGSGGQPREPQVYTLPPSRDELTKNQVSLTCLVKGFYPSDIAVEWESNGQPENNYKTTPPVLDSDGSFFLYSKLTVDKSRWQQGNVFSCSVMHEALHNHYTQKSLSLSPGK
With B12, the midpoint of the response in experiment [3], the EC50, lay at 0.146 nM.

B13: IAB22M γ2 EH2 (other)
chain: DVQITQSPSSLSASVGDRVTITCRTSRSISQYLAWYQQKPGKVPKLLIYSGSTLQSGVPSRFSGSGSGTDFTLTISSLQPEDVATYYCQQHNENPLTFGGGTKVEIKGSTSGGGSGGGSGGGGSSEVQLVESGGGLVQPGGSLRLSCAASGFNIKDTYIHFVRQAPGKGLEWIGRIDPANDNTLYASKFQGKATISADTSKNTAYLQMNSLRAEDTAVYYCGRGYGYYVFDHWGQGTLVTVSSERKSCVECPPCPGGGSSGGGSGGQPREPQVYTLPPSREEMTKNQVSLTCLVKGFYPSDIAVEWESNGQPENNYKTTPPMLDSDGSFFLYSKLTVDKSRWQQGNVFSCSVMHEALHNHYTQKSLSLSPGK
Take B13: in experiment [3], a half-maximal response (EC50) required 0.156 nM.

B14: IAB2M γ2 EH1 (other)
chain: DIVMTQSPSSLSASVGDRVTITCKASQDVGTAVDWYQQKPGKAPKLLIYWASTRHTGVPDRFTGSGSGTDFTLTISSLQPEDFADYFCQQYNSYPLTFGGGTKLEIKGSTSGGGSGGGSGGGGSSEVQLVQSGAEVKKPGASVKISCKTSGYTFTEYTIHWVKQASGKGLEWIGNINPNNGGTTYNQKFEDRATLTVDKSTSTAYMELSSLRSEDTAVYYCAAGWNFDYWGQGTTVTVSSERKCCVECPPCPGGGSSGGGSGGQPREPQVYTLPPSREEMTKNQVSLTCLVKGFYPSDIAVEWESNGQPENNYKTTPPMLDSDGSFFLYSKLTVDKSRWQQGNVFSCSVMHEALHNHYTQKSLSLSPGK
In experiment [2], B14 registered an EC50 of 0.27 nM.

B15: IAB2M γ2 EH2 (other)
chain: B14 chain with C244S
On to B15, for which the EC50 in experiment [4] was 0.05 nM; in experiment [5] it was 0.176 nM.

The record behind these values is patent US20220089730A1 (published 2022).
